Reference: the nanobody polyreactivity screen of Harvey et al. (2022)

Assay: yeast display, Sf9 membrane polyspecificity reagent, FACS + sequencing; frameworks hold sequencing errors
How it was run: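 After 36–48 hours of galactose induction, yeast (Saccharomyces cerevisiae BJ5465) displaying a synthetic nanobody library were stained at 4 °C for 1 hour with 10% biotinylated, detergent-solubilized Sf9 membrane reagent. Streptavidin microbeads enriched the stained cells before FACS sorting into low and high (top ~1%) gates on anti-HA and streptavidin fluorescence. Each clone's polyreactivity label reflects its gate of origin.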

| Sequence | polyreactivity (PSR sort gate) |
| --- | --- |
| QVQLVESGGGLVQAGGSLRLSCAASGRTSGFNTMGWYRQAPGKESELVAAISFSGGSTYYADSVKGRFTISRDNAKNTVYLHMNSLKPEDTAVYYCNALYRYLYRSGDYWGQGTQVTVSS | low polyreactivity |
| KVQLVESGGGLVQAGGRLRLSCAASGGTFVINVMGWYRQAPGKERELVAAISWNGDSTYYADSVKGRFTISRDNAKNTVYLQMNSLKPEDTAVYYCATDTWRVYYAYWQFGVWELGYWGQGTQVTVSS | low polyreactivity |
| HVQLQERGGGLVQAGGSLRLSCAASGSIFQATYMGWYRQAPGKEREFVASITYGSITNYADSVKGRFTIGRDNAKDTLYLQMNSLKPEDTAVYYCAVDRHYIPAFHYWGQCTQVTVSS | low polyreactivity |
| QVQLVESGGGLVQAGGSLRLSCAASGSTLVLNALGWYRQAPGKERELVAAITISGDTTYYADSVKGRFTISRDNAKNTVYLQMNSLKPEDTAVYYCAAVVSTVDGMEYWGQGTQVTVSS | low polyreactivity |
| QVQLVESGGGLVQAGGSLRLSCAASGRTFDGNVMGWNRQAPGKERELVAAITASGGRTYYADSVKGRFTISRDNANNTVYIEMNSLNPEDTAVYYCAARIYRVYYVHFAPYYYWGQGTQVTVSS | high polyreactivity |
| QVQLVESGGGLVQAGGSLRLSCAASGFTFQRYAMGWYRQAPGKERELVATINWSGRTYYADSVNGRFTISRDNAKNTVYLQMNSLKPEDTAVYYCAAERIQYGWWVLFDYWGQGTQVTVSS | high polyreactivity |
| QVQLVESGGGLVQAGGSLRLSCAASGFIFASYAMGWYRQAPGKERELVAAITQSRGITYYADSVKGRFTISRDNAKNTVYLQMNSLKPEDTAGYYCNTPLLKRTSRGRERNYWGQGTQVTVSS | low polyreactivity |
| QVQIVESVGGLVQAGGSLRLSCAASGSTFWFTDMGWYRQAPGKERELVAVITWTGGSTSYADSVKGRFTISRDNAKNTDYLQMKCLNAEDTADYYCDTPVKFGGVPYRYGYWGQGTEVTVSS | low polyreactivity |
| QVQLVESGGGLVQAGGSLRLSCAASGRIFGRYGMGWYRQAPGKERELVAAISRSGDRTYYADSVKGRFTISRDNAKNTVYLQMNSLKPEDTAVYYCAAYSYRYDYWGQGTQVTVSS | high polyreactivity |
| QVQLVESGGGLVQAGASLRLSCAASGFTFVHYALGWYRQAPGKERELVAAITWNGGRTYYADSVQGRFTISRDNAKNTVYFQMNSLKPEDTAVYYCNAVRITYGRYDLDYWGQGTQVTVSS | high polyreactivity |
| QVELVVSGGGLVQAGGSLRLSCAASGRIFYRYAMGWYRQAPGKERELVAAISGRGGSTYYADSVKGRFTISRDNAKNTVYLQMNSLKPEDTAVYYCNALPVYRSLAYEVDYWGQGTQVTVSS | high polyreactivity |
| QVQLVDSGGGLVQSGGSLSLSCAASGFNFWPYAMGWYREAPGKEREFVAAITRTGGSTSYADSVKGRFTISRDNAKNTVYLQINSLKPEDTAVYYCAATSYYRTNYGLVFQYRRNYGGQGTQVTVSS | high polyreactivity |
| QVQLVESGGGLVQAGGSLRLSCAASGFTFYNYAMGWYRPAPGKERELVAAITKSGSRTYYADSVKGRFTISRDNAKNTVYLQMNSLKPEDTAVYYCARDYTVRGYDYWGQGTQVTVSS | high polyreactivity |
| QVQLVESGGCLVQAGGSLRLSCAASGFTFVRNAMGWYRQAPGKDRELVAAISGSGGRTYYADSVKGRFTISRDNAKNTVYLQMNSVKPEDTAVYYCNTASAYEYEYWGQGSQVTVSS | high polyreactivity |
| QVQLVESGGGLVQAGGSLRLSCAASGRIFKYNAMGWYRQAPGKERELVAAIRRSGGSTYYADSVKGRFTISRDNAKNPVYLQMNSLNPEDTAVYYCAATGYVGGIYGHYPRGYWGQGTQVTVSS | high polyreactivity |
| QVQLVESGGGLVQAGGSLRLSCAASGYIFPYNAMGWYRQAPGKERELVATITWTGGSTYYADSVKGRFTISRDNAKNSVYLQMNSLKPEDTAVYYCAADLSIRYDHEYGYWGKGTQVTVSS | low polyreactivity |
| QVQLVESGGGLVHAGGSLRLSCAASGRTFYYNAKGWYRQAPGKESELVAAISSGDSTYYADSVKGRFTISRDNAKNTVSLQLNSLKPEDTAVYYCYADTGLGSLDFDKRDYWGQGTQVTVSS | low polyreactivity |
| QVQLVESGVGLVQAGGSLRLSCAASGFIFYRNAMGWYRPAPGKERELVAGISRVGSTYYADSVKGRFTISRDNAKNTVYLQMKSLKPEDTAVYYCATSTYAYRRNSYYYTRPRFGYWGQGTQVSVSS | high polyreactivity |
| QVQLVESGGGLVQAGRSLRLSCAASVYILYHNAMGWYRQAPGKERELVAAISYSGGRTYYADSVKGRFTISRDNAKNTVYLQMNSLKPEDTSVYYCNALSVWRTGRGQEFDYWGQGTQVTVSS | high polyreactivity |
| QVQLVESGGGLVQAGGSLRLSCADSGFTCYYYTMGWNRPAPWKGRELVAAISWSGGSTYYADSVKGRFTISRDNAKNTVYLQMNSLKPEDPAVYYCNKAYPGRTYDYWGQGSQVTVSS | high polyreactivity |
| QVQLEESGGGLVQAGGSLRLSCAAYGGIFGYYPMGWYRQATGKERELVAAINYSGGSTYYADSVKGRFTISRDNSKNTVYLQMNSLKPEVTAVYYCAKRSYGGTLHYAFDSWGQGTQVTVSS | low polyreactivity |
